Target: PHR1-His (UniProt Q94CL7 1-409)
Assay: EMSA; without SnRK1 (unphosphorylated); 10 mM Tris-HCl pH 8.0, 100 mM NaCl, 10% glycerol, 2 mM DTT, 0.05% NP-40; 0.5 ug protein in 30 ul, 22 C, 30 min; 4.5% acrylamide gel, 0.5x TBE
Details: protein: recombinant; tags: His (pET28b(+)); chain copies: 2; label: 32P 5' end label on sense strand (T4 PNK); blunt

Chain of PHR1-His (Q94CL7 whole entry): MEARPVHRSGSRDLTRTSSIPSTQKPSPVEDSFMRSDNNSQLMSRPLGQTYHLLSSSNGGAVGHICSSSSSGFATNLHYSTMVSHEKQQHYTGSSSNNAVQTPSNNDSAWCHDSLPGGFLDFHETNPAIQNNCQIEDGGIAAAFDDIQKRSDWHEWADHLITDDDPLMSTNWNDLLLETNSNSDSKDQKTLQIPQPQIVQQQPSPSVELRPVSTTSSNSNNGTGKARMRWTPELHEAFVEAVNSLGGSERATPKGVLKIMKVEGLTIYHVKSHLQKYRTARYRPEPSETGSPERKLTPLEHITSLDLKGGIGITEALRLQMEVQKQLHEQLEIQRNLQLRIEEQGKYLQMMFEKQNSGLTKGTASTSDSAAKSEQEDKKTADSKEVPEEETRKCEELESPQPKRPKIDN

B1: AtIPS1 P1BS probe (dsDNA)
DNA 1: CAATTTTGGTAACGGCATATTCCATCGGATGATCCAAAATTCTCAAAA
DNA 2: TTTTGAGAATTTTGGATCATCCGATGGAATATGCCGTTACCAAAATTG
binding result: binds

Reference: article PMC10107491, “Phosphorylation of S11 in PHR1 negatively controls its transcriptional activity”
